Test results published in paper PMC8741645 (Structure (London, England : 1993), 2021).

Target: the molecule itself
Experiment: cryo-EM structure

B1: Saccharomyces cerevisiae vacuolar transient receptor potential yeast 1 (TRPY1) channel, full length, wild type (natural protein, UniProt Q12324 1-675, looked up)
chain: MVSANGDLHLPISNEQCMPENNGSLGFEAPTPRQILRVTLNLKYLIDKVVPIVYDPNDIVCDHSEILSPKVVKLAYEACGGNPKDKANKRKYQSVIIFSLLKVCEWYSILATMEVHNAKLYETRNLASQQLCKLLIEREETRDLQFLFMQLLLRRYVINENDEDQEPLNALELATDMHCTTVIGSSGFQRCLKWIWRGWIVQNGLDPTTFIKDDSLAEVSLISHFNPVRLKAPVYQNYLQMIFSFLFLGLYTLVVNGKDSERVQSFDLLESIFYVFNTGFILDELTKLYYIGYAHLSFWNLFNDTTYLIITFAMGFRAMSVTPLNAKYSSEDWDKISYRVLSCAAPFVWSRLLLYLESQRFIGIMLVILKHMMKESIVFFFLLFLIMIGFTQGFLGLDSADGKRDITGPILGNLTITVLGLGSFDVFEEFAPPYAAILYYGYYFIVSVILLNILIALYSTAYQKVIDNADDEYMALMSQKTLRYIRAPDEDVYVSPLNLIEVFMTPIFRILPPKRAKDLSYTVMTIVYSPFLLLISVKETREARRIKYNRMKRLNDDANEYDTPWDLTDGYLDDDDGLFSDNRNSGMRATQLKNSRSLKLQRTAEQEDVHFKVPKKWYKNVKKCSPSFEQYDNDDTEDDAGEDKDEVKELTKKVENLTAVITDLLEKLDIKDKKE
With B1 the “stoichiometry N” value was 4.
